From patent US20170037117A1 (SALK INSTITUTE FOR BIOLOGICAL STUDIES, published 2017) come the findings set out here.

Changes are numbered by the printed parent chain. Ends that are not written are not given here.

T1: human α-CGRP fragment 26-37 (human)
T1 peptide: NFVPTNVGSKAF-NH2

T2: rat β-CGRP (1-37) (rat, not fully specified; C-terminal amide; N-terminal biotin when captured on the chip)
T2 construct: also called rat β (1-37)
T2 peptide: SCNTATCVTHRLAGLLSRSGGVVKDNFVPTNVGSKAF

T3: human α-CGRP K35A (19-37) (human, not fully specified)
T3 construct: the entry already carries the mutation
T3 peptide: SGGVVKNNFVPTNVGSAAF-NH2

T4: human α-CGRP K35E (19-37) (human, not fully specified)
T4 construct: the entry already carries the mutation
T4 peptide: SGGVVKNNFVPTNVGSEAF-NH2

T5: rat α-CGRP (1-37) (rat, not fully specified; C-terminal amide; N-terminal biotin when captured on the chip)
T5 construct: also called rat α (1-37); α-rat
T5 peptide: T2 peptide with K35E

T6: human α-CGRP 1-37 (WT) (human, not fully specified; C-terminal amide; N-terminal biotin when captured on the chip; 125I label in the radioligand assay)
T6 construct: also called α-human
T6 peptide: T2 peptide with S1A, N3D, D25N

T7: human α-CGRP K35M (19-37) (human, not fully specified)
T7 construct: the entry already carries the mutation
T7 peptide: SGGVVKNNFVPTNVGSMAF-NH2

T8: human β-CGRP (1-37) (human, not fully specified; C-terminal amide; N-terminal biotin when captured on the chip)
T8 construct: also called human β (1-37); β-CGRP (WT)
T8 peptide: T2 peptide with S1A, V22M, D25S

T9: human α-CGRP P29A (19-37) (human)
T9 construct: the entry already carries the mutation
T9 peptide: SGGVVKNNFVATNVGSKAF-NH2

T10: human α-CGRP fragment 8-37 (human, C-terminal amide)
T10 peptide: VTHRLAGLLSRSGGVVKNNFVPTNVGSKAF

T11: human α-CGRP fragment 1-36-COOH (human, free C-terminus (not amidated))
T11 peptide: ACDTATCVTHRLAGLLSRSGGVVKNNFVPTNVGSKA

B1: Human calcitonin (1-32) (peptide)
peptide: CGNLSTCMLGTYTQDFNKFHTFPQTAIGVGAP-NH2
modifications: ends and bridges not checked
B2: Human adrenomedullin (1-52) (peptide)
peptide: YRQSMNNFQGLRSFGCRFGTCTVQKLAHQIYQFTDKDKDNVAPRSKISPQGY-NH2
modifications: ends and bridges not checked
B3: antibody G1 Fab fragment (Fab, V domains shown)
VH: EVQLVESGGGLVQPGGSLRLSCAASGFTFSNYWISWVRQAPGKGLEWVAEIRSESDASATHYAEAVKGRFTISRDNAKNSLYLQMNSLRAEDTAVYYCLAYFDYGLAIQNYWGQGTLVTVSS
VL: EIVLTQSPATLSLSPGERATLSCKASKRVTTYVSWYQQKPGQAPRLLIYGASNRYLGIPARFSGSGSGTDFTLTISSLEPEDFAVYYCSQSYNYPYTFGQGTKLEIK
B4: Human amylin (1-37) (peptide)
peptide: KCNTATCATQRLANFLVHSSNNFGAILSSTNVGSNTY-NH2
modifications: ends and bridges not checked
B5: human α-CGRP fragment 1-19-COOH (peptide)
peptide: ACDTATCVTHRLAGLLSRS-OH
modifications: ends and bridges not checked
B6: human α-CGRP fragment 1-13-COOH (peptide)
peptide: ACDTATCVTHRLA-OH
modifications: ends and bridges not checked

Experiment [1] deals with B3. Put plainly: Biacore competition: G1 Fab 50 nM pre-incubated 1 h with 10 uM competing peptide, flowed over N-biotinylated human α-CGRP on SA chip; blocked ligand human α-CGRP. The text has this: Y axis represents percentage of binding blocked by the presence of the competing peptide compared with the binding in the absence of the competing peptide.
All these peptides are amidated at the C-terminus.
(SPR reads the build-up and loss of mass on a sensor chip optically.)

Experiment [2] concerns the target T1, human α-CGRP fragment 26-37. Put plainly: Biacore competition, 50 nM G1 Fab + 10 uM peptide over human α-CGRP on chip. The source says:
(§1) Y axis represents percentage of binding blocked by the presence of the competing peptide compared with the binding in the absence of the competing peptide. […]

Experiment [3] has as its target T2, rat β-CGRP (1-37). Described as above.
Description: as §1

Experiment [4] has as its target B1. Described as above.
Description: as §1

Experiment [5] concerns the target T3, human α-CGRP K35A (19-37). The experiment is described as above.
Description: as §1

Experiment [6] addresses T4, human α-CGRP K35E (19-37). Described as above.
Description: as §1

Experiment [7] has as its target T5, rat α-CGRP (1-37). The experiment is described as above.
Description: as §1

Experiment [8] addresses T6, human α-CGRP 1-37 (WT). Described as above.
Description: as §1

The target in experiment [9] is B6. Described as above.
Description: as §1

The target of experiment [10] is T7, human α-CGRP K35M (19-37). The experiment is described as above.
Description: as §1

Experiment [11] addresses T8, human β-CGRP (1-37). The description is as above.
Description: as §1

The target in experiment [12] is human α-CGRP fragment 19-36-COOH (human, Table 4: not C-terminally amidated (19-36-COOH); paragraph 408 says amidated at the C-terminus). The experiment is described as above.
Description: as §1

In experiment [13] the target is T9, human α-CGRP P29A (19-37). The experiment is described as above.
Description: as §1

In experiment [14] the target is B2. The description is as above.
Description: as §1

Experiment [15] deals with T10, human α-CGRP fragment 8-37. The description is as above.
Description: as §1

The target in experiment [16] is B5. Described as above.
Description: as §1

In experiment [17] the target is T11, human α-CGRP fragment 1-36-COOH. The experiment is described as above.
Description: as §1

Experiment [18] concerns the target B4. Described as above.
Description: as §1

In the case of B1, the “% Binding blocked” value in experiment [1] is 0%.

As for B2, in [1], the “% Binding blocked” value was 0%.

B3: the “percentage of binding blocked” value in [2], in experiment [3], in [5], in experiment [6], in [7] and in experiment [8] was 100% in each case. In addition, the “percentage of binding blocked” value in experiment [10] was 100%; in experiment [11], 100%; in experiment [13] it was 100%; in experiment [15] it was 100%; in [17] it was roughly 40%. For the same molecule, the binding result in experiment [4], in experiment [9], in experiment [12], in [14], in [16] and in experiment [18] was “no binding (tested: 10 uM peptide)” each time.

As to B4, the “% Binding blocked” value in experiment [1] came out at 0%.

As for B5, in experiment [1], the “% Binding blocked” value is 0%.

Take B6: in experiment [1], the “% Binding blocked” value worked out at 0%.
